# Assay results: the DeepSol protein solubility set
# Assay: soluble on expression in E. coli; label from the status in PepcDB or PDB records
row,Sequence,soluble on expression in E. coli
1,MGSDKIHHHHHHMEKIIVNGRKNGQKIEIACSNLVMGAGDFLRADNMDFAGPVLDQYFEMGGNIFDTARHYRHSEKAIGAWMNMRGNRDSVIIQTKGGHPVREASDVPRVTPEAIHEDISVSLDTLQTDHVELFALHRDNPDVEVGSIMEAMHKEVEAGRVYAIGLSNWELSRIIEANEYAVNHGLTPLSFNSPNFSLAKVNRPRWENCVSANEEMIRWHEATNLPLFSWSSQAGGFFSGRFSEEDTSDTEMVEVYYSEANWERYSRAKQLANQKGCTPIQISLAYVLTQSFPTAAVIGPENTTELQSSVAAAGIKLTASEVDWLDLKA,not soluble
2,MELKDDDFEKISELGAGNGGVVFKVSHKPSGLVMARKLIHLEIKPAIRNQIIRELQVLHECNSPYIVGFYGAFYSDGEISICMEHMDGGSLDQVLKKAGRIPEQILGKVSIAVIKGLTYLREKHKIMHRDVKPSNILVNSRGEIKLCDFGVSGQLIDSMANSFVGTRSYMSPERLQGTHYSVQSDIWSMGLSLVEMAVGRYPIPPPDAKELELMFGCQVEGDAAETPPRPRTPGRPLSSYGMDSRPPMAIFELLDYIVNEPPPKLPSGVFSLEFQDFVNKCLIKNPAERADLKQLMVHAFIKRSDAEEVDFAGWLCSTIGLNQPSTPTHAAGVLEHHHHHH,soluble
3,MGSDKIHHHHHHMSNEFDSDRYSTYWAEEWLDVKQYSPIGRHTRRKIMQLLARCPAPDTFADFGSGEGSLLSMVHAKYPAARLFGCDFASESVRRCRQRLPQAEIVLKDLTDPEPPFAGRVSVGVCSEVLEHIEDDARALHNLGTWAEHVIITVPGGELDESSRAVGHLRHYTKDSLRGLARRAGLEVLHLEEWGFPFSYPWYARVRNKAGYGMMVGRYSMRKKLLCHALYLLFFGNDLFSSGNKLFMLCRGSKA,not soluble
4,SLRAEKSDDPLYPLTIIHLNDFHARFEETNTVSTRCKPDEGERCIGGYGRVVSRVKSLQQEYADRNPIYLNAGDSFQGTIWYTLLRWNVTAYFLNLLPADAMTLGNHEFDHGVEGLVPFLGAIDSPMLVANIDDREEPTLQGKYQRNVVLERGGRKIGIIGVIHHATDTLSMTDRVRFLDEVQCINQEATALKQLGVDIIVVLSHCGFTIDQQIARECPDVDVVVGGHSHTLLHTGTVADWPDVPAGSFPFVVEQAAGRRVLIVQAGSFTKYLGHLVVYFDERGEAVRWEGNTEYLDESFPKDEQIERELVPWRTQVDALAVRPVGVSRVFLSKPACRTGECNFGSFVADAFVDYYVGRGEAEHEWTYAAIGITNDGGLRTSLAPGTLTYEDLVTAIPYENTVDTFELRGQYLLDALEYSASRYDTADVLQFAGLRVVFNLTRPALQRVQRVDVRCRVCRIPRYEPLDVNATYRIAIAAWIGSGGNGYTMFGQHRTNVRVGPLDIDVFERYVAKMSPIMQGTDGRMVFVR,not soluble
5,SLKDELANIPGIQFVDHVAIAVKQGDLEGQVAAYKMLGFTEVHREDVLGGDQVREVLLRIGDGPNLIQLLEPLNASSPVQKLIEKNGGRGGFAHVAFRVRNARESFDAMTAQGFHIIDKAPRKGSRGTTVFFVHPKSLDSAPFGFLIEIVEEPVEG,soluble
6,SLQHAPLNFVPDAAKVPPTPGQSPNARWSREAIEALFALPFNDLLFQAQQVHRAHFDANAVQLSTLLSIKTGGCPEDCSYCPQSARYDTGVEAEKLMPIDTVLEAAARAKQNGASRFCMGAAWRNPKPHQLDAVADMVRGVKAMGLETCVTLGMLKQEQAQQLKDAGLDYYNHNLDTAPEFYGEIITTRTYQDRLDTLEHVRDAGINVCCGGIVGLGESRHERAGLVAELANMEPYPDSVPINNLVKVEGTPLAGNEALDPFEFVRTIAVARITMPKAMVRLSAGREAMDDALQALCFMAGANSIFYGEKLLTTDNPEADADRKLLARLGMRVEVQDHLHQAEGAQHSHSSHCHIDITPADEG,soluble
7,MAQVGETEVVAGNVRDIVNRLSRDMTNRNPFTVHQQVERRAPPPQPQAQIYVATYAYSSKQDDELSFVVGDLIELISDVEDGWSKGKLKSTGAVGMFPTNFVTLKPTPSTSAAAVAPAASASTSAGSAARTPAKSIGSEVVMRSEPKAIDRTPSTIISDPAPVLKALETKFSSTFASSAASASTDAETTKTKEMARVKFVYNPQHDDELALKEIDMLINITNKNCGDAGWFEGELHGKKGLFPDNFVELVQVPLGTESGARHGSISRQATLTFVSHKPPPVNPPQPAVPPKPAKISVVRRGFIEKIEKKMFHFISGNN,soluble
8,MKDNRITVTDIPNTNLKKITLKNDFLEVVLLNYGARLHQLLMPNKNNHWENILLSYDSYQDVLKDQSFFGATVGPVAGRIRNGHWQNGILEQNSDGHHIHGGSKGWSFQYWTVEPFEKKDIIGVAFHLTDTISGYPGPIEATITYQLEDNHLRMISTGRSKQETLFNPTNHAYFNLSGDGKLDILSHLLSLNCQGMLELDDNKLPTGRILPASELSIRFNELTPIETILQRYPTGLDDVFSLVGSDLRQPQLCLQEPTSGRKMTIATTNQSMVLFSTTGFEAPFSINGQAMHSNYGLAIEPQEYPDIVHHPQWGSILLPANKKQTYQTVYQFNLL,not soluble
9,KGTLYLVATPIGNLEDVTFRAIRTLKEADQIAAEDTRQTKKLLNHFDIATKLVSYHEHNKETMGKRLIDDLIEGRTIALVSDAGMPAISDPGYELVVSAIKEGIAVIPIPGA,not soluble
10,MLRPLSKTDCPMLQEINAKALGYLVSLDLLERQYERLIEDCHHYFLAYADKDTNQLLGYVHAERYETLYASDGLNLLGLAVLPAYQRRGIGSALLRALESQARQEGIAFIRLNSASHRKEAHAFYRNLDYADDKTQLRFIKNLQGDDNDF,not soluble
11,MADSQTSSNRAGEFSIPPNTDFRAIFFANAAEQQHIKLFIGDSQEPAAYHKLTTRDGPREATLNSGNGKIRFEVSVNGKPSATDARLAPINGKKSDGSPFTVNFGIVVSEDGHDSDYNDGIVVLQWPIG,soluble
12,MGSDKIHHHHHHMVSPEHLRRSKAVQRRTGRTFHIATRFLPERVRYPTYVLYAFFRLTDEIVDDEAPGPPDEQRRRLAHVRAAALGDRDPDDPVLAAFAALREDHDIPREEVTTFIDAMQQDVDTARYRSHDDLAEYLRGSSVAVGYMMLSIMDAPEPERARPHAASLGEAFQLTNFLRDVREDVLDYDRIYLPSQTLAAHGASHDDIAALSATPQVRDAIRAELDRTERLYRHGVAGIEHLPADCQFPVLAAAVMYADQHRLIRAQDCDVLSQRPTLTLRRRLSVVARTWLRWRVSDDPTAVFHAVTGIGEPDAGGVPEQSFAVRESQPTRAD,not soluble
13,MTATSDKVLKIQLRSASATVPTKGSATAAGYDIYASQDITIPAMGQGMVSTDISFTVPVGTYGRIAPRSGLAVKNGIQTGAGVVDRDYTGEVKVVLFNHSQRDFAIKKGDRVAQLILEKIVDDAQIVVVDSLEESARGAGGFGSTGN,not soluble
14,MPISSSSARRAEPAPRPLAEFHPVVRQWFERHFAAPTPAQVEAWPAIREGLSTLVAAPTGSGKTLTAFLAAIDALVVEGLAAGGELADATQVVYVSPLKALSNDIRINLEQPLAGIREELARLGLPDVDIRSAVRTGDTPQVERGAMRKRPPHILVTTPESLYILLGSESGRQMLAGVRSVIVDEIHALAGSKRGSHLALSLERLQALCPRPLLRIGLSATQKPIEKVARFLVGASGNPRDPACRIVDVGYTRPRDLGIEVPPVALEAVMSNDTWELVYDRLAHLAGEHRTTLVFVNTRRMAERVTRFLAERLGSRQVAAHHGSLAKELRLDAEQRLKAGQLKVLVATASLELGIDIGDVELVCQLSSPRSIAAFLQRVGRSGHSVGGTPKGRLFPTSRDDLVECAALLDSVRRGELDSLVLPRQPLDVLAQQIVAEVACQEWREDDLYRLVIRAEPYAGLERERFDEVLRMLAEGYHSRLGVRGAYLHRDALNGLLRGRRGARLTALTSGGTIPDTGDYSVLLEPQGLLVGTVNEDFAVESLAGDVFQLGNTSYRIIRIEPGRVRVEDAQGQPPNIPFWLGEAPGRSDELSASVARLRDTLDELLGEGQALPEGRRLEPAIAWLGATLGLDDGAARQIVEYLARARQALGGLPGSRRLVLERFFDESGGMQLIIHSPHGSRLNRAWGLALRKRFCRSFNFELQAAATEDAIILSLSTSHSFPLDEVWRYLHSASAEHLLVQAVLDAPLFGVRWRWNLTTSLGLPRYAGGRKVPPQLLRMKSEDLLASVFPDQVACLENIVGEREVPDHPLVAQTLDDCLHEAMDCEGWLALLRDMESGAVDLLARDLPAPSALAAEILTARPYAYLDDAPLEERRTQAVQNRRWSDPESADDLGALDLEAIEAVRGEAWPEASNADEMHEALNSLGFLTSGEAEANPGWGEWLAQLSEQRRAGRLDCAGSTLWLAAERLPAMRLVHPAAKVPDAFQAPRGYPPPDSAEAATVELTRARLGGFGPRTAGQLAADLGIGLADQQYALAALEREGYVLRGRFSPGATEEEWCERHLLARIHRYTVKRLRREIEPVERADFMRFLFDWQRLAPGTRGRGAESLATVVEQLEGFQAAAAAWESELLAARVADYASHWLDQLCRSGRIVWARLAGRSKAAGGPLRSAPIVLLPRRELGLWSVLQRDAPEPELSPRAARVLEVLREQGASFFDELSQDAHLLRSELENALGELVSVGRVNADSFAGLRTLLMPADKRSRQERRSRGLPGGMQDAGRWAPLRRAKAEEAGQRLPAEVLEHVARTLLRRYGVVAWRLLEREADWLPPWRELLRVYHRLEARGEIRGGRFIAGLAGEQFALAEAVGLLREVRKRPPDGAMLVVSAVDPLNLVGGLLPGERVPAVTGNRLLYRDGAPLAALVAGKVRMLAEVDGETAQQIRALLI,not soluble
15,MGSDKIHHHHHHMRLVNIAYVGEGEVLARPLVSPNGKVLLQAGVKLTRNYIDKLSRLGFDTMFIEDDTFQDVEIYSAVSIKTREAAYASLENLSKNLNEAQPHTVNLGEVKKAVQNIIADLLYSKDMLGNVMEIQGYDDYTFHHSVNTTIIALIMGISMGWHNGKLLELGMGVLMHDVGKIKIPSEILNKRGPLTPEEFAEIKKHAEYGFEILRKNHDINLLSAHIALQHQERWDGSGYPRGLKGNQIHEYGRLAAVADVYEALTSKRVYRNALQPYEAYEYVIANSDTLFEPKVVQNTFSKCITPYPTGTGVRLTNGLRGNVVKQNFTFPTRPYVRMTHEGEIRLIAPIDYNLAEHPSLMIVGIENK,not soluble
16,MNSKSRITAIGTHVPNQILSNNDLEKMIDTNDEWIVQRTGMKERRIASEDEYSSNLAIKAVENLCTTYKKNLEDVDCIIVATTTADYVFPSVACQIQQYFNIPHTMAFDLNATCAGFTYGLHVGNSLITSGSHKKVLVVATETLSKVTDYTDRTTCILFGDGAGAILLERDENKPSFIAYHMGTNGHGGIHLYRTNLSTTMNDTPLQTNEKIVQNGREVYKWATRTVPVGIKELLHTANMKMDDIDWFIPHSANLRMIESICEKSQIPIHKTLTSVEYMGNTSSVSIPLALDLARKKGKLNNGDTLLLYGFGGGLTHLGLIVEWDLS,not soluble
17,SPEAQTEIEESILEEYAIWRKNTPFLYDLVVTKPLEWPSLTCQWLPEKREFPNSDYYLEKIILGTQTDGNAQNYLMLAQVRLPNEKAEVDGSAYNNKENGSYGGFGMGQQGKIDIVQRIKHDGDVNRARYMPQNPQIIATKTVSGEVHIFDISKHPLKPPANNVASPQLRLRSPQKEGFGLCWNPNQEGRIISAGEDRRIFLWDILGGGDKEEYVNPLNVYGGHTDVVGDVSFHAHSQYLFGSVGDDRKIMLWDTRSSDVEHPSQEVEAHKDVINCLAFNPFSEHVLITGSADTTLCLWDLRSLNQPLHVFESHPGEILQALWSPFHETLFASCGKDRQVRIWDLSRIGEEQEPEDAEDGPPELLFVHGGHTSTVQELSWNPNEPFVIASVADDNILQLWSMAQHIYEDTDDESMTTELKEEDLE,soluble
18,MSETIEIDELVFSVKRSTRRRTVGVTVERDKSLVAHLPQGVALDVATRLIASKLLWVHQKLAEHGETARDDVFRIPEFVDGEGFHLLGKHYRLKLVDVPKNVTGVPSVRFEGDRILLRREQAASGGKRIEEYYTRAAHPYLNETVQRWKRIVGVEPGRFVQVMDLGYRWGSCSEDGTLNFHWRTMQLPPRIIEYVVVHELVHIKVPNHSEKFWKMIGSVMPDYESRKAWLKQKGGEL,soluble
